Assay results published in PMC9299485, “4‐Iodopyrimidine Labeling Reveals Nuclear Translocation and Nuclease Activity for Both MIF and MIF2” (Chemistry (Weinheim an Der Bergstrasse, Germany), 2021).

System: human genomic DNA
Assay: Nuclease assay of MIF and MIF2 on human genomic DNA (agarose gel)
Type: biochemical
Details: for concentration giving complete hgDNA cleavage: within 2 h, 37°C, Mg2+
Procedure: 7. Nuclease activity of MIF and MIF2.
Human genomic DNA was obtained from RPE-1 cells by DNA extraction following the protocol described in literature.[10] The nuclease assays were conducted by following the procedure described previously.[8] hgDNA (200 ng/reaction) was incubated with MIF or MIF2 in final concentration of 0.62 -20 µM as indicated in 10Mm Tris-HCl buffer (pH 7.0) containing 10mM MgCl2 (B and C) or specific buffer as indicated at 37°C for two hours. The reaction was terminated with loading buffer containing 10mM EDTA and incubation on ice. The human genomic DNA samples were immediately separated on a 1% agarose gel containing SYBR Safe (ThermoFisher) in 0.5 X TBE buffer with initial switch time of 1.5 s and a final switch time of 3.5 s for 12 hours at 6 V/cm. DNA was further detected by chemiluminescence.
Figure S7. hgDNA cleavage activity of MIF and MIF2. (A) The MIF2 nuclease activity is Mg 2+- […]
BITC is a covalent inhibitor that can form covalent bond with the N-terminal proline.[11] (C) […]
(1 picture or pasted object on this page, not shown here)

| Molecule | concentration giving complete hgDNA cleavage | nuclease activity relative to MIF (lower activity than MIF) [fold] |
| --- | --- | --- |
| MIF: recombinant human macrophage migration inhibitory factor, tested as nuclease on hgDNA (protein, UniProt P14174 2-115, looked up) Macrophage migration …: PMFIVNTNVPRASVPDGFLSELTQQLAQATGKPPQYIAVHVVPDQLMAFGGSSEPCALCSLHSIGKIGGAQNRSYSKLLCGLLAERLRISPDRVYINYYDMNAANVGWNNSTFA | 1.25 µM |  |
| MIF2: recombinant human MIF2 (D-dopachrome tautomerase), tested as nuclease on hgDNA (protein, UniProt P30046 2-118, looked up) D-dopachrome decarboxylase: PFLELDTNLPANRVPAGLEKRLCAAAASILGKPADRVNVTVRPGLAMALSGSTEPCAQLSISSIGVVGTAEDNRSHSAHFFEFLTKELALGQDRILIRFFPLESWQIGKIGTVMTFL | above 10 μM | 10 |
